Test results: patent US20050042747A1, “Hivgp120-induced bob/gpr15 activation” (priority 2001, published 2005)

What follows are molecules tested on HT-29 cells (assay: Calcium signaling in HT-29 cells (Fluo 4, confocal microscope)).
Assay type: cell-based, human
Protocol: HT-29 cells (from ATCC) were grown in DMEM-F12 with 10% bovine calf serum, and were used 24-48 hours after plating. The Ghost (3) cells were obtained from the AIDS Research and Reference Reagent Program, and were grown DMEM with 10% bovine calf serum supplemented with 500 μg/ml G418, 100 μg/ml hygromycin, and 1 μg/ml puromycin.^27 These cells were used 24 to 96 hours after plating.
Calcium studies were done on HT-29 cells and Ghost (3) cells loaded with Fluo 4. The cells were placed in Locke's buffer containing 5 μg/ml Fluo 4 AM ester (Molecular Probes) for 20 to 30 minutes, then in Locke's buffer for an additional 30 minutes before testing. Various concentrations of gp120IIIB (X4 trophic), gp120CM235 (R5 trophic), gp120mN (X4 trophic), gp12093TH975 (nonsyncytium-inducing primary isolate from an asymptomatic subject, trophism undetermined but likely R5), and gp120SF2 (X4R5 trophic), ranging from 10 nM to less than 1 pM, were added in Locke's buffer.^6 The gp120 proteins were obtained from the AIDS Research Reagent Referral Program. Some HT-29 cells were given one of the following pretreatments: 50 μg/ml anti-Bob37 overnight, 1 μg/ml pertussis toxin overnight, or 4.6 μg/ml U73122 for one hour. With the HT-29 cells only, similar tests were also performed with SDF-1, MIP-1α, MIP-1β, and RANTES rather than gp120. The cells were visualized every 4 seconds in a confocal microscope, using 488 nm argon laser excitation and detection filters appropriate for fluorescein-like dyes.
For the first two or three days after plating, gp120 induces an immediate (within 4 seconds) calcium flux in undifferentiated HT-29 cells. The cells had previously been loaded with Fluo-4 AM ester (Molecular Probes, Eugene Oreg.) 5 micrograms/ml in the presence of Pleuronic F-127 0.02% in Locke's buffer for 30 minutes, then incubated at room temperature for an additional 30 minutes. Gp120IIIB was added while the cells were on an inverted confocal microscope using a 488 nm argon laser, with detection filters suitable for fluorescein-like dyes. […]

Molecule	calcium signaling in HT-29 cells, in words
RANTES: natural ligand of CCR5 (protein, UniProt P13501 24-91, looked up) C-C motif chemokine 5: SPYSSDTTPCCFAYIARPLPRAHIKEYFYTSGKCSNPAVVFVTRKNRQVCANPEKKWVREYINSLEMS	induced similar calcium signaling
MIP-1β: natural ligand of CCR5 (protein, UniProt P13236 24-92, looked up, ends and bridges not checked, natural ligand of CCR5) C-C motif chemokine 4: APMGSDPPTACCFSYTARKLPRNFVVDYYETSSLCSQPAVVFQTKRSKQVCADPSESWVQEYVYDLELN	induced similar calcium signaling
MIP-1α: natural ligand of CCR5 (protein, UniProt P10147 24-92, looked up) C-C motif chemokine 3: SLAADTPTACCFSYTSRQIPQNFIADYFETSSQCSKPGVIFLTKRSRQVCADPSEEWVQKYVSDLELSA	induced similar calcium signaling
